Biological target: human GABAA receptor β3 subunit (human, UniProt P28472, N-linked glycans at Asn80 and Asn149)
Assay: cryo-EM structure

Sequence of human GABAA receptor β3 subunit (P28472 26-473): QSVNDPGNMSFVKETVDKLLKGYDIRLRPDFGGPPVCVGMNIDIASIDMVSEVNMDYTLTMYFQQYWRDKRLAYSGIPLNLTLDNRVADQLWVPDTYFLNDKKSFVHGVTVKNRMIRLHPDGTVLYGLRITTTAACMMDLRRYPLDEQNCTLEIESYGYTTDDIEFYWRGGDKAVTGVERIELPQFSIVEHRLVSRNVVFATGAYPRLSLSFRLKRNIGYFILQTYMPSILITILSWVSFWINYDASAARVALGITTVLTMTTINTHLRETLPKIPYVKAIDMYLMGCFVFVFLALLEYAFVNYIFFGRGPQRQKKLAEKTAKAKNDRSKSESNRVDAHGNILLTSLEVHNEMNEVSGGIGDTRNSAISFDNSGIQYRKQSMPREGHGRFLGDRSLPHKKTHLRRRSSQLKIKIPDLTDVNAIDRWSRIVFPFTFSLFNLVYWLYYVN

B1: megabody MbNb38^cHopQ (VHH)
VHH: QVQLQESGGGLVQAGGSLRVSCAASGRTFTAYIMAWFRQAPGKEREFLAAMDQGRIQYYGDSVRGRFTISRDYAKNSVDLQLDGLRPEDTAVYYCAAGAGFWGLRTASSYHYWGQGTQVTVSS
B1: binds.

— PMC6364807 (Nature, 2019)
